Reference: patent publication US20250163162A1

Target: T1, IL10Rα/IL2Rγ receptor (human) (UniProt Q13651)
T1 sequence (looked up) 1: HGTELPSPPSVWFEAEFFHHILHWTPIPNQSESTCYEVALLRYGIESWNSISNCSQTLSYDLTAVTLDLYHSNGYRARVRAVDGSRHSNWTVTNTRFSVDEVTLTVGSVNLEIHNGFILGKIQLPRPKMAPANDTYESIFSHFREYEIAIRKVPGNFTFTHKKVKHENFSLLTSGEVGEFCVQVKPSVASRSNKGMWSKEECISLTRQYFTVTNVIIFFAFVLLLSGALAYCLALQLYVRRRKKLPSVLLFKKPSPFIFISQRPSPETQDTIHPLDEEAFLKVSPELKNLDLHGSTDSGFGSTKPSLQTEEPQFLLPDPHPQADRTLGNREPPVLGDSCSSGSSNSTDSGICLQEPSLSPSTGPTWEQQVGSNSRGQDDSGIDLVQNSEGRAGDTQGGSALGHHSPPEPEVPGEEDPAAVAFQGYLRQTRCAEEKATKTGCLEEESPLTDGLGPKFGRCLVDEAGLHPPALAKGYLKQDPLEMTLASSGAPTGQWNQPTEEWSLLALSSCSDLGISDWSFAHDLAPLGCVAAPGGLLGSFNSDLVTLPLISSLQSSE
T1 sequence (looked up) 2: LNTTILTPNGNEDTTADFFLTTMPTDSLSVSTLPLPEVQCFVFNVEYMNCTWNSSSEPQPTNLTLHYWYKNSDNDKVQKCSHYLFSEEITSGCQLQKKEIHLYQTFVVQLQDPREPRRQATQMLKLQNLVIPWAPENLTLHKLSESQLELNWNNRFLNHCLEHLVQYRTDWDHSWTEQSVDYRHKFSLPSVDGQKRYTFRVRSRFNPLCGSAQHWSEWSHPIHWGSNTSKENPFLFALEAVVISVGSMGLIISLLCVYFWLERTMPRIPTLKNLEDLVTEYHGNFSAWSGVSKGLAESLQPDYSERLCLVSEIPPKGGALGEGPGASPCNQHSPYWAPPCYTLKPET
Assay: cell-based or functional assay

B1: hIL10Ra_VHH14 - hIL2Rg_VHH19, linker …, tag his (bispecific antibody, not shown: small tags and cut ends)
chain: QVQLQESGGGSVQAGGSLRLSCGASGYTYSSYCMGWFRQVPGKEREGVAVIDSDGSTSYADSVKGRFTISKDNGKNTLYLQMNSLKPEDTAMYYCAADLGHYRPPCGVLYLGMDYWGKGTQVTVSSGGSGGSGGSGQVQLQESGGGSVQAGGSLRLSCTASGFTFDDREMNWYRQAPGNECELVSTISSDGSTYYADSVKGRFTISQDNAKNTVYLQMDSVKPEDTAVYYCAADFMIAIQAPGAGCWGQGTQVTVSS
Granzyme A secretion, CD8 T cells, at 0 µM: 25200 pg/mL
Granzyme A secretion, CD8 T cells, at 0.0001 µM: 20600 pg/mL
Granzyme A secretion, CD8 T cells, at 0.001 µM: 25200 pg/mL
Granzyme A secretion, CD8 T cells, at 0.01 µM: 28100 pg/mL
Granzyme A secretion, CD8 T cells, at 0.1 µM: 29300 pg/mL
Granzyme A secretion, CD8 T cells, at 1 µM: 31000 pg/mL
Granzyme A secretion, CD8 T cells, at 10 µM: 31500 pg/mL
Granzyme A secretion, CD8 T cells, at 100 µM: 29900 pg/mL
Granzyme B secretion, CD8 T cells, at 0 µM: 77700 pg/mL
Granzyme B secretion, CD8 T cells, at 0.0001 µM: 68900 pg/mL
Granzyme B secretion, CD8 T cells, at 0.001 µM: 70600 pg/mL
Granzyme B secretion, CD8 T cells, at 0.01 µM: 71000 pg/mL
Granzyme B secretion, CD8 T cells, at 0.1 µM: 79300 pg/mL
Granzyme B secretion, CD8 T cells, at 1 µM: 112000 pg/mL
Granzyme B secretion, CD8 T cells, at 10 µM: 125000 pg/mL
Granzyme B secretion, CD8 T cells, at 100 µM: 106000 pg/mL
IFNγ secretion, CD8 T cells, at 0 µM: 122000 pg/mL
IFNγ secretion, CD8 T cells, at 0.0001 µM: 90100 pg/mL
IFNγ secretion, CD8 T cells, at 0.001 µM: 125000 pg/mL
IFNγ secretion, CD8 T cells, at 0.01 µM: 127000 pg/mL
IFNγ secretion, CD8 T cells, at 0.1 µM: 130000 pg/mL
IFNγ secretion, CD8 T cells, at 1 µM: 147000 pg/mL
IFNγ secretion, CD8 T cells, at 10 µM: 154000 pg/mL
IFNγ secretion, CD8 T cells, at 100 µM: 141000 pg/mL
IL-1β secretion, LPS treated monocytes, at 0 µM: 6240 pg/mL
IL-1β secretion, LPS treated monocytes, at 0 µM (LPS only): 6880 pg/mL
IL-1β secretion, LPS treated monocytes, at 0.0001 µM: 5890 pg/mL
IL-1β secretion, LPS treated monocytes, at 0.001 µM: 5390 pg/mL
IL-1β secretion, LPS treated monocytes, at 0.01 µM: 6020 pg/mL
IL-1β secretion, LPS treated monocytes, at 0.1 µM: 5240 pg/mL
IL-1β secretion, LPS treated monocytes, at 1 µM: 5680 pg/mL
IL-1β secretion, LPS treated monocytes, at 10 µM: 7120 pg/mL
IL-1β secretion, LPS treated monocytes, at 100 µM: 8780 pg/mL
IL-9 secretion, CD8 T cells, at 0 µM: 1350 pg/mL
IL-9 secretion, CD8 T cells, at 0.0001 µM: 1010 pg/mL
IL-9 secretion, CD8 T cells, at 0.001 µM: 1320 pg/mL
IL-9 secretion, CD8 T cells, at 0.01 µM: 1390 pg/mL
IL-9 secretion, CD8 T cells, at 0.1 µM: 1450 pg/mL
IL-9 secretion, CD8 T cells, at 1 µM: 1590 pg/mL
IL-9 secretion, CD8 T cells, at 10 µM: 2050 pg/mL
IL-9 secretion, CD8 T cells, at 100 µM: 1960 pg/mL

B2: hIL10Ra_VHH14 - hIL2Rg_VHH19, linker GGGSGGGS, tag his (bispecific antibody, not shown: small tags and cut ends)
chain: QVQLQESGGGSVQAGGSLRLSCGASGYTYSSYCMGWFRQVPGKEREGVAVIDSDGSTSYADSVKGRFTISKDNGKNTLYLQMNSLKPEDTAMYYCAADLGHYRPPCGVLYLGMDYWGKGTQVTVSSGGGSGGGSQVQLQESGGGSVQAGGSLRLSCTASGFTFDDREMNWYRQAPGNECELVSTISSDGSTYYADSVKGRFTISQDNAKNTVYLQMDSVKPEDTAVYYCAADFMIAIQAPGAGCWGQGTQVTVSS
Granzyme A secretion, CD8 T cells, at 0 µM: 25200 pg/mL
Granzyme A secretion, CD8 T cells, at 0.0001 µM: 19700 pg/mL
Granzyme A secretion, CD8 T cells, at 0.001 µM: 22300 pg/mL
Granzyme A secretion, CD8 T cells, at 0.01 µM: 22700 pg/mL
Granzyme A secretion, CD8 T cells, at 0.1 µM: 26000 pg/mL
Granzyme A secretion, CD8 T cells, at 1 µM: 30100 pg/mL
Granzyme A secretion, CD8 T cells, at 10 µM: 29300 pg/mL
Granzyme A secretion, CD8 T cells, at 100 µM: 24800 pg/mL
Granzyme B secretion, CD8 T cells, at 0 µM: 77700 pg/mL
Granzyme B secretion, CD8 T cells, at 0.0001 µM: 52600 pg/mL
Granzyme B secretion, CD8 T cells, at 0.001 µM: 45500 pg/mL
Granzyme B secretion, CD8 T cells, at 0.01 µM: 47300 pg/mL
Granzyme B secretion, CD8 T cells, at 0.1 µM: 62200 pg/mL
Granzyme B secretion, CD8 T cells, at 1 µM: 80500 pg/mL
Granzyme B secretion, CD8 T cells, at 10 µM: 83500 pg/mL
Granzyme B secretion, CD8 T cells, at 100 µM: 78100 pg/mL
IFNγ secretion, CD8 T cells, at 0 µM: 122000 pg/mL
IFNγ secretion, CD8 T cells, at 0.0001 µM: 95500 pg/mL
IFNγ secretion, CD8 T cells, at 0.001 µM: 108000 pg/mL
IFNγ secretion, CD8 T cells, at 0.01 µM: 102000 pg/mL
IFNγ secretion, CD8 T cells, at 0.1 µM: 122000 pg/mL
IFNγ secretion, CD8 T cells, at 1 µM: 142000 pg/mL
IFNγ secretion, CD8 T cells, at 10 µM: 143000 pg/mL
IFNγ secretion, CD8 T cells, at 100 µM: 120000 pg/mL
IL-1β secretion, LPS treated monocytes, at 0 µM: 6240 pg/mL
IL-1β secretion, LPS treated monocytes, at 0 µM (LPS only): 6880 pg/mL
IL-1β secretion, LPS treated monocytes, at 0.0001 µM: 5950 pg/mL
IL-1β secretion, LPS treated monocytes, at 0.001 µM: 6200 pg/mL
IL-1β secretion, LPS treated monocytes, at 0.01 µM: 4960 pg/mL
IL-1β secretion, LPS treated monocytes, at 0.1 µM: 5590 pg/mL
IL-1β secretion, LPS treated monocytes, at 1 µM: 5670 pg/mL
IL-1β secretion, LPS treated monocytes, at 10 µM: 6020 pg/mL
IL-1β secretion, LPS treated monocytes, at 100 µM: 6840 pg/mL
IL-9 secretion, CD8 T cells, at 0 µM: 1350 pg/mL
IL-9 secretion, CD8 T cells, at 0.0001 µM: 988 pg/mL
IL-9 secretion, CD8 T cells, at 0.001 µM: 1050 pg/mL
IL-9 secretion, CD8 T cells, at 0.01 µM: 1010 pg/mL
IL-9 secretion, CD8 T cells, at 0.1 µM: 1300 pg/mL
IL-9 secretion, CD8 T cells, at 1 µM: 1380 pg/mL
IL-9 secretion, CD8 T cells, at 10 µM: 1880 pg/mL
IL-9 secretion, CD8 T cells, at 100 µM: 1700 pg/mL
